Source: publication PMC10333884 (Molecular Systems Biology, 2023)
Non-standard residues stand in square brackets, D forms with d. No end group written: not given here. pS = N[C@@H](COP(=O)(O)O)C(=O)O

Assays:
Settings in all cases: both partners purified
[1] = biological target: T1, Clathrin N-terminal domain (NTD) (human, UniProt Q00610 1-364); assay: fluorescence polarisation; displacement: unlabelled peptide diluted 1:1 in series and added to a pre-formed complex of protein domain and FITC-labelled probe peptide (5 nM in the measurement); 50 mM sodium phosphate pH 7.4, room temperature; KD calculated from the displacement curves; technical triplicates
T1 construct: clathrin heavy chain, N-terminal domain; also called Clathrin NTD; CLTC-NTD; source: E. coli BL21-Gold(DE3), purified (GSH or Ni2+ beads), tag removed with protease
T1 sequence: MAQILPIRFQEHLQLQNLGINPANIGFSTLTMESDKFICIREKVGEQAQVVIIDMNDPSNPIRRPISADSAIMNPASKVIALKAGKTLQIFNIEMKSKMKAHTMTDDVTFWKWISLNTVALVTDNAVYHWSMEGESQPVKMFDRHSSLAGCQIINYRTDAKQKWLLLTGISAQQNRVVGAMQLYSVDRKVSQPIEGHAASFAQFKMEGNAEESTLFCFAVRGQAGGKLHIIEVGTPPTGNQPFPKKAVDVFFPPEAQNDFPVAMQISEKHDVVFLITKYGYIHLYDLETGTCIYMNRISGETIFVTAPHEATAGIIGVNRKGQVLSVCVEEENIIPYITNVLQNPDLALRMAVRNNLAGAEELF

GGA1 VHS = biological target: T2, GGA1 VHS (human, UniProt Q9UJY5 17-147); assay: fluorescence polarisation; displacement of a FITC-labelled probe peptide (5 nM in the measurement) from the protein domain (1-2 fold over the probe's KD) by a dilution series of unlabelled peptide; room temperature; 50 mM sodium phosphate pH 7.4; KD calculated from the displacement curve; for KPNA4 ARM one probe for each pocket
T2 construct: GGA1 VHS domain; limits in Dataset EV3; construct limits are in Dataset EV3; also called GGA1 VHS domain; source: E. coli BL21-Gold(DE3), purified, tag removed
T2 sequence (looked up): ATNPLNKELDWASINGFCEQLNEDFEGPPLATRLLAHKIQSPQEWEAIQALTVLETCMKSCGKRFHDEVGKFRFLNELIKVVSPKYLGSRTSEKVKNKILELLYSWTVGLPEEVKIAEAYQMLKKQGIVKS

AP2 µ2 = biological target: T3, AP2 µ2 (human, UniProt Q96CW1 1-435); assay: fluorescence polarisation; direct binding (saturation curve): 1:1 dilution series of the protein domain with 5 nM FITC-labelled peptide; room temperature; 50 mM sodium phosphate buffer pH 7.4; fitted to the quadratic equation
T3 construct: AP-2 complex subunit mu (AP2 µ2); also called AP2 μ2; source: E. coli BL21-Gold(DE3), purified (GSH or Ni2+ beads), tag removed by protease
T3 sequence (looked up): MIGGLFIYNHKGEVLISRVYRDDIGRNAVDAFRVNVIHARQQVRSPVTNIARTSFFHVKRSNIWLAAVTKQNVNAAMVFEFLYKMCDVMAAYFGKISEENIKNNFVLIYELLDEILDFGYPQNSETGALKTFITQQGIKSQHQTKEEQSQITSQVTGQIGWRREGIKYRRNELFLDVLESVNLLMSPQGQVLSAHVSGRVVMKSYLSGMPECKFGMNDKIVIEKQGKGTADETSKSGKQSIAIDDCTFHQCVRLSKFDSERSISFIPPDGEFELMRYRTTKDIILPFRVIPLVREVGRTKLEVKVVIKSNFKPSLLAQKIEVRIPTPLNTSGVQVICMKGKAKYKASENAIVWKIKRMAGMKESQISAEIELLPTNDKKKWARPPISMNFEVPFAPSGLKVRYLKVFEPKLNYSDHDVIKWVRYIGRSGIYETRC

GABARAPL2 ATG8 = biological target: T4, GABARAPL2 ATG8 (human); assay: as above
T4 construct: GABARAPL2, ATG8 domain; source: E. coli BL21-Gold(DE3), purified (GSH or Ni2+ beads), tag removed by protease

MAP1LC3A ATG8 = biological target: T5, MAP1LC3A ATG8 (human); assay: as above
T5 construct: MAP1LC3A, ATG8 domain; source: E. coli BL21-Gold(DE3), purified (GSH or Ni2+ beads), tag removed by protease

MAP1LC3B ATG8 = MAP1LC3B ATG8 (human); assay: as above
14-3-3 Theta = biological target: T6, 14-3-3 Theta (human, UniProt P27348 1-245); assay: as above
T6 sequence (looked up): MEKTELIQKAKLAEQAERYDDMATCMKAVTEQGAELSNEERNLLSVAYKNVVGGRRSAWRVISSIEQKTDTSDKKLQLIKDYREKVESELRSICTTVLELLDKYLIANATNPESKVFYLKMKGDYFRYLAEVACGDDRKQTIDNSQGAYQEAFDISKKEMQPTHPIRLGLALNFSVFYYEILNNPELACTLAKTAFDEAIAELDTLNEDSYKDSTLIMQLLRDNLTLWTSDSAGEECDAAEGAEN

[2] = biological target: T7, Clathrin N-terminal domain (NTD) (human, UniProt Q00610 1-364); assay: as above
T7 construct: clathrin heavy chain, N-terminal domain; also called Clathrin NTD; CLTC-NTD; source: E. coli BL21-Gold(DE3), purified (GSH or Ni2+ beads), tag removed by protease
T7 sequence: T1 sequence

GGA1 VHS domain = biological target: T8, GGA1 VHS domain (human, UniProt Q9UJY5 17-147); assay: as above
T8 construct: GGA1, VHS domain; source: E. coli BL21-Gold(DE3), purified (GSH or Ni2+ beads), tag removed by protease
T8 sequence (looked up): T2 sequence (looked up)

FITC-NCOR2 = biological target: T9, FITC-NCOR2 (also: FITC label, position not given here); assay: as above
T9 chain: PKRTYDMMEGRVGRAI

FITC-MYC = biological target: T10, FITC-MYC (also: FITC label, position not given here); assay: as above
T10 chain: PAAKRVKLD

FITC-HIV1_Gag = biological target: T11, FITC-HIV1_Gag (HIV-1 (printed as HIV1), also: FITC label, position not given here); assay: as above
T11 chain: SLYPPLTSLR

RANBP2 RanBD4 = biological target: T12, RANBP2 RanBD4 (human); assay: as above
T12 construct: the sheet prints 'RanBD1 4'); also called RANBP2 RanBD1 4; RAN2BP RanBD4; source: E. coli BL21-Gold(DE3), purified (GSH or Ni2+ beads), tag removed by protease

[3] = biological target: SNX27 PDZ domain, MBP-tagged (human, UniProt Q96L92 43-136); assay: as above
TSG101 UEV domain = biological target: T13, TSG101 UEV domain (human, UniProt Q99816 2-145); assay: as above
T13 sequence (looked up): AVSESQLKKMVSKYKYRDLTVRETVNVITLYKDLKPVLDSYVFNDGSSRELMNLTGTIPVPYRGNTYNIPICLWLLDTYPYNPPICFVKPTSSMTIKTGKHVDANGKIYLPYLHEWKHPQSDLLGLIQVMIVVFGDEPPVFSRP

B1: GTSE1 692-707 peptide, unphosphorylated (peptide)
peptide: YGQLIDLSSPLIQLSPE
notes: not part of GTSE1; G2 and S phase-expressed protein 1 (GTSE1), human, residues 692-707; also called wild-type GTSE1; source: synthetic peptide (Glbiochem or Genecust)
Kd [1]: 91 µM

B2: GTSE1 692-707 peptide phosphorylated at S698 (peptide)
peptide: YGQLIDL[pS]SPLIQLSPE
notes: not part of GTSE1; G2 and S phase-expressed protein 1 (GTSE1), human, residues 692-707; also called pS698 GTSE1; source: synthetic peptide (Glbiochem or Genecust)
Kd [1]: 123 µM

B3: GTSE1 692-707 peptide phosphorylated at S699 (peptide)
peptide: YGQLIDLS[pS]PLIQLSPE
notes: not part of GTSE1; G2 and S phase-expressed protein 1 (GTSE1), human, residues 692-707; also called pS699 GTSE1; source: synthetic peptide (Glbiochem or Genecust)
Kd [1]: 109 µM

B4: GTSE1 692-707 peptide phosphorylated at S705 (peptide)
peptide: YGQLIDLSSPLIQL[pS]PE
notes: not part of GTSE1; G2 and S phase-expressed protein 1 (GTSE1), human, residues 692-707; also called pS705 GTSE1; source: synthetic peptide (Glbiochem or Genecust)
Kd [1]: 105 µM

INLFEKEKEMKKSPTS (also: phosphoserine/threonine, site not given here) [GTSE1_(145–160), phosphorylated (pS)]
Kd (GGA1 VHS): 640 µM

FDTEYQRLEAS (also: FITC label, position not given here) [FITC-ATG9A]
Kd (AP2 µ2): 1.51 µM

DDDWTHLSSK (also: FITC label, position not given here) [FITC-SQSTM1]
Kd (GABARAPL2 ATG8): 11 µM | Kd (MAP1LC3A ATG8): 1.36 µM | Kd (MAP1LC3B ATG8): 2.5 µM

RQRSAP (also: FITC label, position not given here) [FITC-2BTP]
Kd (14-3-3 Theta): 27.8 µM

SVDLITFDSV (also: FITC label, position not given here) [FITC-NSP3]
Kd [2]: 26 µM

DDSDEDLLHI (also: FITC label, position not given here) [FITC-IGF2R]
Kd (GGA1 VHS domain): 31 µM

B5: KPNA4 ARM domain (domain or fragment)
chain: GDYRVQNTSLEAIVQNASSDNQGIQLSAVQAARKLLSSDRNPPIDDLIKSGILPILVHCLERDDNPSLQFEAAWALTNIASGTSEQTQAVVQSNAVPLFLRLLHSPHQNVCEQAVWALGNIIGDGPQCRDYVISLGVVKPLLSFISPSIPITFLRNVTWVMVNLCRHKDPPPPMETIQEILPALCVLIHHTDVNILVDTVWALSYLTDAGNEQIQMVIDSGIVPHLVPLLSHQEVKVQTAALRAVGNIVTGTDEQTQVVLNCDALSHFPALLTHPKEKINKEAVWFLSNITAGNQQQVQAVIDANLVPMIIHLLDKGDFGTQKEAAWAISNLTISGRKDQVAYLIQQNVIPPFCNLLTVKDAQVVQVVLDGLSNILKMAEDEAETIGNLIEECGGLEKIEQLQNHENEDIYKLAYEIIDQFFSSDDIDEDPSLVPEAIQGGTFGFNSSANVPTEGFQF
Kd (FITC-NCOR2): 0.013 µM | Kd (FITC-MYC): 0.003 µM

B6: PDCD6IP Alix V domain (domain or fragment)
chain: PVSVQQSLAAYNQRKADLVNRSIAQMREATTLANGVLASLNLPAAIEDVSGDTVPQSILTKSRSVIEQGGIQTVDQLIKELPELLQRNREILDESLRLLDEEEATDNDLRAKFKERWQRTPSNELYKPLRAEGTNFRTVLDKAVQADGQVKECYQSHRDTIVLLCKPEPELNAAIPSANPAKTMQGSEVVNVLKSLLSNLDEVKKEREGLENDLKSVNFDMTSKFLTALAQDGVINEEALSVTELDRVYGGLTTKVQESLKKQEGLLKNIQVSHQEFSKMKQSNNEANLREEVLKNLATAYDNFVELVANLKEGTKFYNELTEILVRFQNKCSDIVFARKTER
Kd (FITC-HIV1_Gag): 3.6 µM

KEALATPLPK (also: FITC label, position not given here) [FITC-C7orf25]
Kd (RANBP2 RanBD4): 22 µM

GSLEMETAFNSRGFED (also: FITC label, position not given here) [FITC-SYT16]
Kd [3]: 7.5 µM

GLIPTAPPAD (also: FITC label, position not given here) [FITC-HIV2_Gag]
Kd (TSG101 UEV domain): 1.9 µM
